± gives the uncertainty stated by the source.
Test: protein stability index of a GFP-peptide fusion (yeast GPS) (PSI 1-4); higher = more stable; sorted into four equal gates, so the index is relative within each strain
Outline: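 Each library plasmid carries Cherry plus GFP with a tiled 17-residue yeast protein peptide fused downstream, and the pooled library was carried in yeast. Mid-log cultures in leucine-free medium were sorted into four equal gates by GFP/Cherry ratio. Reads from Illumina sequencing of PCR-amplified plasmids from each gate were assigned to strains by barcodes. Per peptide, the protein stability index was computed as the summed products of gate read frequency and gate number.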

## AKYHAKLNKKLQHLRSR [SRP68]
doa10∆
  protein stability index: 3.3 ± 0.088
pdr5∆
  protein stability index: 3.44 ± 0.078
san1∆
  protein stability index: 3.26 ± 0.046
ubr1∆
  protein stability index: 3.07 ± 0.059

## MLLVDIIPSRMGEAQTG [REC8]
doa10∆
  protein stability index: 1.7 ± 0.063
pdr5∆
  protein stability index: 1.87 ± 0.073
san1∆
  protein stability index: 2.02 ± 0.09
ubr1∆
  protein stability index: 2.17 ± 0.061

## IIKYPVAFDNINTHIET [SNF2]
doa10∆
  protein stability index: 2.45 ± 0.14
pdr5∆
  protein stability index: 2.71 ± 0.11
san1∆
  protein stability index: 2 ± 0.16
ubr1∆
  protein stability index: 1.85 ± 0.067

## RLAEFKRRKLDLNNAVQ [SMC4]
doa10∆
  protein stability index: 3.28 ± 0.27
pdr5∆
  protein stability index: 2.87 ± 0.12
san1∆
  protein stability index: 2.98 ± 0.067
ubr1∆
  protein stability index: 2.96 ± 0.078

## IESFVELGVSIYDFPGT [NUT2]
doa10∆
  protein stability index: 2.83 ± 0.081
pdr5∆
  protein stability index: 3.07 ± 0.095
san1∆
  protein stability index: 2.53 ± 0.09
ubr1∆
  protein stability index: 2.2 ± 0.038

## KKDVEKELPDKVEKVVK [SNF2]
doa10∆
  protein stability index: 3.52 ± 0.23
pdr5∆
  protein stability index: 3.47 ± 0.14
san1∆
  protein stability index: 3.39 ± 0.099
ubr1∆
  protein stability index: 3.34 ± 0.089

## GQRTAYHSKRDASTPLR [RPB2]
doa10∆
  protein stability index: 3.32 ± 0.092
pdr5∆
  protein stability index: 3.1 ± 0.11
san1∆
  protein stability index: 3.12 ± 0.066
ubr1∆
  protein stability index: 3.25 ± 0.071

## LRRSGQIANDPSKKRRR [SMD1]
doa10∆
  protein stability index: 2.58 ± 0.078
pdr5∆
  protein stability index: 3.01 ± 0.15
san1∆
  protein stability index: 2.73 ± 0.086
ubr1∆
  protein stability index: 3.23 ± 0.1

## ALERYDEAEGRFEVINN [SMC1]
pdr5∆
  protein stability index: 1.12 ± 0.17

## LSDYEVLKFLTDLEKKH [RPC17]
doa10∆
  protein stability index: 3.38 ± 0.13
pdr5∆
  protein stability index: 3.23 ± 0.12
san1∆
  protein stability index: 3.08 ± 0.086
ubr1∆
  protein stability index: 3.11 ± 0.13

## KTEDGFVIPALPAAVSK [RPC82]
pdr5∆
  protein stability index: 2.41 ± 0.26
ubr1∆
  protein stability index: 2.8 ± 0.2

## KKVVLRLECVKCKTRAQ [RPL42A]
doa10∆
  protein stability index: 2.3 ± 0.12
pdr5∆
  protein stability index: 2.03 ± 0.095
san1∆
  protein stability index: 2.4 ± 0.16
ubr1∆
  protein stability index: 2.09 ± 0.047

## MSNDPGNEVSSLYPPPP [MED7]
doa10∆
  protein stability index: 3.21 ± 0.1
pdr5∆
  protein stability index: 2.92 ± 0.071
san1∆
  protein stability index: 2.69 ± 0.082
ubr1∆
  protein stability index: 3.08 ± 0.062

## ESLSEEHASLLVRDSKP [MED8]
doa10∆
  protein stability index: 2.53 ± 0.084
pdr5∆
  protein stability index: 3.04 ± 0.12
san1∆
  protein stability index: 2.69 ± 0.086
ubr1∆
  protein stability index: 2.59 ± 0.099

## LQFRPAPMYILDEVDAA [SMC2]
doa10∆
  protein stability index: 1.59 ± 0.2
pdr5∆
  protein stability index: 1.89 ± 0.25
ubr1∆
  protein stability index: 1.89 ± 0.1

## VLKCLKSLESQRYVKSV [RPC34]
doa10∆
  protein stability index: 1.72 ± 0.059
pdr5∆
  protein stability index: 1.94 ± 0.054
san1∆
  protein stability index: 1.99 ± 0.1
ubr1∆
  protein stability index: 1.91 ± 0.07

## EEVEDQINPTRETNDDI [SNF2]
doa10∆
  protein stability index: 2.25 ± 0.079
pdr5∆
  protein stability index: 1.74 ± 0.082
san1∆
  protein stability index: 1.45 ± 0.11
ubr1∆
  protein stability index: 1.58 ± 0.062

## YSRISKLKQLLDESSEQ [YIL149C/MLP2]
doa10∆
  protein stability index: 2.25 ± 0.077
pdr5∆
  protein stability index: 2.67 ± 0.088
san1∆
  protein stability index: 1.73 ± 0.14
ubr1∆
  protein stability index: 2.4 ± 0.053

## VSNNVLRRLEILVPDLY [ECM29]
doa10∆
  protein stability index: 2.31 ± 0.1
pdr5∆
  protein stability index: 1.84 ± 0.083
san1∆
  protein stability index: 1.56 ± 0.11
ubr1∆
  protein stability index: 1.65 ± 0.073

## LSKLEKALDRHEFFIAN [SRP68]
doa10∆
  protein stability index: 2.66 ± 0.055
pdr5∆
  protein stability index: 2.61 ± 0.045
san1∆
  protein stability index: 2.55 ± 0.049
ubr1∆
  protein stability index: 2.64 ± 0.047

## FVPVPALSAYHKVQTKL [RPS7B]
doa10∆
  protein stability index: 2.42 ± 0.046
pdr5∆
  protein stability index: 2.52 ± 0.046
san1∆
  protein stability index: 2.27 ± 0.057
ubr1∆
  protein stability index: 2.55 ± 0.032

## LSDYIPGPYPNEQAARA [CYT1]
doa10∆
  protein stability index: 2.1 ± 0.054
pdr5∆
  protein stability index: 2.54 ± 0.05
san1∆
  protein stability index: 2.4 ± 0.063
ubr1∆
  protein stability index: 2.39 ± 0.05

## QIMQLKKICNHPFVFEE [SNF2]
doa10∆
  protein stability index: 2.77 ± 0.075
pdr5∆
  protein stability index: 2.38 ± 0.053
san1∆
  protein stability index: 2.53 ± 0.063
ubr1∆
  protein stability index: 2.55 ± 0.059

## FLQRIDFQIDGNIFELL [RRI2]
doa10∆
  protein stability index: 2.63 ± 0.1
pdr5∆
  protein stability index: 2.92 ± 0.071
san1∆
  protein stability index: 2.37 ± 0.07
ubr1∆
  protein stability index: 2.64 ± 0.048

## QGEEEELIALNLSEARL [RPB4]
doa10∆
  protein stability index: 3.22 ± 0.12
pdr5∆
  protein stability index: 3.53 ± 0.14
san1∆
  protein stability index: 3.22 ± 0.078
ubr1∆
  protein stability index: 3.26 ± 0.095

## IDSSNLPLQAQQQLYGG [SWI1]
doa10∆
  protein stability index: 2.91 ± 0.057
pdr5∆
  protein stability index: 3.1 ± 0.062
san1∆
  protein stability index: 2.75 ± 0.077
ubr1∆
  protein stability index: 2.87 ± 0.043

## TEVRAEDEAALAKLVST [RPL8A]
doa10∆
  protein stability index: 2.9 ± 0.062
pdr5∆
  protein stability index: 2.93 ± 0.06
san1∆
  protein stability index: 2.59 ± 0.055
ubr1∆
  protein stability index: 2.74 ± 0.048
